Experimental data taken from CN117164676A (UNIV XIAMEN; BEIJING WANTAI BIOLOGICAL PHARMACY ENTPR CO LTD, dated 2023).

T1: 融合蛋白VZV-ORF9-F3
T1 chain: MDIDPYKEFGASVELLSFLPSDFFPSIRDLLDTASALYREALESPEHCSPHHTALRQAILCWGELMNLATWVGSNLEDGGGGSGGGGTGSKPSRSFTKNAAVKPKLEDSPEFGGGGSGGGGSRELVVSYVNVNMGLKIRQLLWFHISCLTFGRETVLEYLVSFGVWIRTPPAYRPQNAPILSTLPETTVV

T2: 水痘-带状疱疹病毒(VZV) pOka毒株ORF9蛋白 (Varicella-Zoster Virus, pOka毒株, UniProt P09272 1-302)
T2 sequence: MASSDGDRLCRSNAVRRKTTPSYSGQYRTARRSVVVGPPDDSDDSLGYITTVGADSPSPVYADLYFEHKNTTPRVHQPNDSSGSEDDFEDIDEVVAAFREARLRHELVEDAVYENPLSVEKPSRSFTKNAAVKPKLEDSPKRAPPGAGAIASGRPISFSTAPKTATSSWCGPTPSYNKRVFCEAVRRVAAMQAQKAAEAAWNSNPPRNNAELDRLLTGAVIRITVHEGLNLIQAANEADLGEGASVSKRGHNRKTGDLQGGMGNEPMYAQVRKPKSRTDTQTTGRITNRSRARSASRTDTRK

T3: 不含表位肽的载体蛋白(HBcAg) C149
T3 construct: also called 载体蛋白C149; 突变型HBc
T3 chain: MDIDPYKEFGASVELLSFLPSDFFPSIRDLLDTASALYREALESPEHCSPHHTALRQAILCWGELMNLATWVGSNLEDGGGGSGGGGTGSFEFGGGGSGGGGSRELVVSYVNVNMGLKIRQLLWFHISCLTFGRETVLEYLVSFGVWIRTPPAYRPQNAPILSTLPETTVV

T4: VZV-ORF9-肽12 (Varicella-Zoster Virus, pOka毒株)
T4 construct: Synthetic 20-mer of ORF9; also called 121-140aa
T4 peptide: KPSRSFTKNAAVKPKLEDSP

T5: 融合蛋白VZV-ORF9-F1
T5 construct: Expressed in E. coli, forms virus-like particles; Run on SDS-PAGE for the Western blot
T5 chain: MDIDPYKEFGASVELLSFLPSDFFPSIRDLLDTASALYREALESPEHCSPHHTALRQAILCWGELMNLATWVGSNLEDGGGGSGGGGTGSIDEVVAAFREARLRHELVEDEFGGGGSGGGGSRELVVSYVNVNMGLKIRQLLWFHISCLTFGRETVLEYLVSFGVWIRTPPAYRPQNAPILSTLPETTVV

T6: VZV-ORF9-肽9 (Varicella-Zoster Virus, pOka毒株)
T6 construct: Synthetic 20-mer of ORF9; also called 91-110aa
T6 peptide: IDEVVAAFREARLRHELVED

T7: 融合蛋白VZV-ORF9-F2-2
T7 chain: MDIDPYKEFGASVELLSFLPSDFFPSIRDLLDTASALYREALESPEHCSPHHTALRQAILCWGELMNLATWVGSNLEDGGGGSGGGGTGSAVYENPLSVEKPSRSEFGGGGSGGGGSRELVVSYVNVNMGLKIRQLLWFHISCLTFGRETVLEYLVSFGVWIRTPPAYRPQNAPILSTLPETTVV

T8: 融合蛋白VZV-ORF9-F2-4
T8 chain: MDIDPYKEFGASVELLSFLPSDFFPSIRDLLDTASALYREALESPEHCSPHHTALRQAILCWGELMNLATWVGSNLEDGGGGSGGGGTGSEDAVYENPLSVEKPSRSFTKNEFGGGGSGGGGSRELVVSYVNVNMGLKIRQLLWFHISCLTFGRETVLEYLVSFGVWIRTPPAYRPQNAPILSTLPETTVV

T9: 融合蛋白VZV-ORF9-F2-3
T9 chain: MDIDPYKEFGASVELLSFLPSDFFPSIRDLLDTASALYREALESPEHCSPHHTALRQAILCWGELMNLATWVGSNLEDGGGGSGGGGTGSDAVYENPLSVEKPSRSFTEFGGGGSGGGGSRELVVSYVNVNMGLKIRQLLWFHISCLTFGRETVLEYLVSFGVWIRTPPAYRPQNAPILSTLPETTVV

T10: 融合蛋白VZV-ORF9-F2-6
T10 chain: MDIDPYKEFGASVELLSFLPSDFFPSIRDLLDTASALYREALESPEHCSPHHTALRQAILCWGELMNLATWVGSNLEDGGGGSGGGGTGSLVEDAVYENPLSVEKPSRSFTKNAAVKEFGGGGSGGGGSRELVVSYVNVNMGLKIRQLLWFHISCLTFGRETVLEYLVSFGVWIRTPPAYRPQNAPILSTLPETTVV

T11: 融合蛋白VZV-ORF9-F2-1
T11 chain: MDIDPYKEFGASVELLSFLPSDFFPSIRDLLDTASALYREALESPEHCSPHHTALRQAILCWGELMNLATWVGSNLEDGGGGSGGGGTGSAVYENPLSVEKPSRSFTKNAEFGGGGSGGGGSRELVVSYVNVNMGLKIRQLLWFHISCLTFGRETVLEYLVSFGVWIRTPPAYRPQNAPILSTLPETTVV

T12: 融合蛋白VZV-ORF9-F2-7
T12 chain: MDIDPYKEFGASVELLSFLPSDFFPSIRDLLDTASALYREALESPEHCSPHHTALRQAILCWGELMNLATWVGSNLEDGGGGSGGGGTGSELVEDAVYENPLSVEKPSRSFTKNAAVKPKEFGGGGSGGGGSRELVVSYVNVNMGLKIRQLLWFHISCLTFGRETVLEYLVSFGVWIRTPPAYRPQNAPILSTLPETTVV

T13: 融合蛋白VZV-ORF9-F2-5
T13 chain: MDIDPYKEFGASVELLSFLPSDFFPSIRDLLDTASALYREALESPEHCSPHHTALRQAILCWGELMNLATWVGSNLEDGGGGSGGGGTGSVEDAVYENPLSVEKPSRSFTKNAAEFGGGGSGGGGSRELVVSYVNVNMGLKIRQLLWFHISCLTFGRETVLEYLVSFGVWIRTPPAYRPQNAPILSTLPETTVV

T14: 融合蛋白VZV-ORF9-F2-8
T14 chain: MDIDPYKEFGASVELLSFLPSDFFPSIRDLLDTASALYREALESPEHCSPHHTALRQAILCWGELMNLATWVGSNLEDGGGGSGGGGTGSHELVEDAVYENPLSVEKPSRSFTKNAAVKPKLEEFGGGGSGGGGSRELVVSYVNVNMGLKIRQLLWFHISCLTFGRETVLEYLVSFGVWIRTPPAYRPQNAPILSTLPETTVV

T15: VZV-ORF9-肽11 (Varicella-Zoster Virus, pOka毒株)
T15 construct: Synthetic 20-mer of ORF9; also called 111-130aa
T15 peptide: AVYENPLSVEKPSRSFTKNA

B1: 抗VZV ORF9中和性单克隆抗体13A7 (antibody, IgG1, V domains shown)
VH: QVQLQQSGAVLARPGASVKLSCKASGYTFTTYWVQWIKQRPGQGLEWIGTIYPGDGDARYAQKFKGKATLTATESSSTAYMQLSSLASEDSAVYYCSRREVYDDYAWFAYWGQGTLVTVSA
VL: QIVLSQSPAILSASPGEKVTMTCRASSSVHYMHWYQQKSGFSPKPWIYATSNLASGVPARFSGSESGTSYSLTISRVEAEDAATYFCQQWSTSPPTFGSGTKLEIK
notes: also called 单抗13A7
B2: 抗VZV ORF9中和性单克隆抗体4E9 (antibody, IgG1, V domains shown)
VH: QVQLQQSGAELMKPGASVKISCKATGYTFSRYWIEWVKLRPGHGLDWIGEILPGSKTNYNEKFKGKATFTADTSSNTAYMQLSSLTSEDSAVYYCAREGFVYWGQGTLVTVSA
VL: DIKMTQSPSSMYASLGERVTITCKASQDINSYLSWLQQKPGKSPKTLIYRANRLVDGVPSRFSGSGSGQDYSLTISSLEYEDMGIYYCLQFDEFPYTFGGGTKLEI
notes: also called 单抗4E9
B3: 抗VZV ORF9中和性单克隆抗体4E8 (antibody, IgG1, V domains shown)
VH: QVQLQQSGPELVKPGASVKMSCKTSGYTFTDDVISWVKQRTGQGLEWIGEINPGSGSIYYNEKFKGKATLTADKSSTTAYMQLSSLTSEDSAVYFCARSQYWGQGTTLTVSS
VL: DVVMTQTPLSLPVSLGDQASISCRSSQSLVHSNGNTYLHWYLQKPGQSPKLLIYKVSNRFSGVPDRFSGSGSGTDFTLKISRVEAEDLGVYFCSQSTHVPLTFGAGTKLELK
notes: also called 单抗4E8

What was measured:
融合蛋白VZV-ORF9-F3 = molecular target: T1, 融合蛋白VZV-ORF9-F3; assay: Western blot, antibody at 2μg/mL
[1] = molecular target: T2, 水痘-带状疱疹病毒(VZV) pOka毒株ORF9蛋白; assay: cell-based or functional assay
不含表位肽的载体蛋白(HBcAg) C149 = molecular target: T3, 不含表位肽的载体蛋白(HBcAg) C149; assay: Western blot
VZV-ORF9-肽12 = molecular target: T4, VZV-ORF9-肽12; assay: indirect ELISA, peptide coated at 1μg/孔
融合蛋白VZV-ORF9-F1 = molecular target: T5, 融合蛋白VZV-ORF9-F1; assay: Western blot, antibody at 2μg/mL
VZV-ORF9-肽9 = molecular target: T6, VZV-ORF9-肽9; assay: indirect ELISA, peptide coated at 1μg/孔
融合蛋白VZV-ORF9-F2-2 = molecular target: T7, 融合蛋白VZV-ORF9-F2-2; assay: Western blot, antibody at 2μg/mL
融合蛋白VZV-ORF9-F2-4 = molecular target: T8, 融合蛋白VZV-ORF9-F2-4; assay: Western blot, antibody at 2μg/mL
融合蛋白VZV-ORF9-F2-3 = molecular target: T9, 融合蛋白VZV-ORF9-F2-3; assay: Western blot, antibody at 2μg/mL
融合蛋白VZV-ORF9-F2-6 = molecular target: T10, 融合蛋白VZV-ORF9-F2-6; assay: Western blot, antibody at 2μg/mL
融合蛋白VZV-ORF9-F2-1 = molecular target: T11, 融合蛋白VZV-ORF9-F2-1; assay: Western blot, antibody at 2μg/mL
融合蛋白VZV-ORF9-F2-7 = molecular target: T12, 融合蛋白VZV-ORF9-F2-7; assay: Western blot, antibody at 2μg/mL
融合蛋白VZV-ORF9-F2-5 = molecular target: T13, 融合蛋白VZV-ORF9-F2-5; assay: Western blot, antibody at 2μg/mL
融合蛋白VZV-ORF9-F2-8 = molecular target: T14, 融合蛋白VZV-ORF9-F2-8; assay: Western blot, antibody at 2μg/mL
VZV-ORF9-肽11 = molecular target: T15, VZV-ORF9-肽11; assay: indirect ELISA, peptide coated at 1μg/孔

Binder | binding result (融合蛋白VZV-ORF9-F3) | 中和效价 (ELISPOT中和实验, VZV pOka, ARPE-19细胞) [1] | binding result (不含表位肽的载体蛋白(HBcAg) C149) | binding result (VZV-ORF9-肽12) | binding result (融合蛋白VZV-ORF9-F1) | binding result (VZV-ORF9-肽9) | binding result (融合蛋白VZV-ORF9-F2-2) | binding result (融合蛋白VZV-ORF9-F2-4) | binding result (融合蛋白VZV-ORF9-F2-3) | binding result (融合蛋白VZV-ORF9-F2-6) | binding result (融合蛋白VZV-ORF9-F2-1) | binding result (融合蛋白VZV-ORF9-F2-7) | binding result (融合蛋白VZV-ORF9-F2-5) | binding result (融合蛋白VZV-ORF9-F2-8) | binding result (VZV-ORF9-肽11)
B1 | binds | 16 dilution 1:x of the 1 mg/mL stock | no binding (tested: 2μg/mL) | binds | – | – | – | – | – | – | – | – | – | – | –
B2 | – | 16 dilution 1:x of the 1 mg/mL stock | no binding (tested: 2μg/mL) | – | binds | binds | – | – | – | – | – | – | – | – | –
B3 | – | 32 dilution 1:x of the 1 mg/mL stock | no binding (tested: 2μg/mL) | – | – | – | binds | binds | binds | binds | binds | binds | binds | binds | binds
